Our source for the switch fluorescence ratio values is the supplement of paper PMC10126150.

± gives the standard deviation of the averaged measurements.
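Note: ATP exposure 15 min at 22 °C before imaging.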

The data set relates to ATP. Description: switch fluorescence ratio, 500 uM ATP over buffer (Cy3 cluster intensity, sum of 5 cycles each) (fold (ratio)); higher = stronger signal-on switching upon ATP binding; sequences stand for … in TCGTCGGCAGCGTCAGATGTGTATAAGAGACAGTTTTTTTTTTTTTTTTTTTTTTTTT…TC. Particulars: aptamer strand: ATP DNA aptamer (quencher-CACCTGGGGGAGTATTGCGGAGGAAGG + anchor), 100 nM annealed; ATP concentration: 500 uM. The method, boiled down:
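Five buffer/ATP imaging cycles were run on Cy3-labelled switching-strand clusters on a modified Illumina MiSeq flow-cell, with NaOH stripping and re-annealing between cycles. In each cycle, clusters annealed to 100 nM quencher-labelled ATP aptamer were imaged in selection buffer, then after 15 min with 500 uM ATP at 22 °C. Per cluster, the fluorescence ratio is summed target-cycle over summed buffer-cycle Cy3 intensity, averaged per switch-domain sequence. Only clusters within 100-1000 RFU were kept.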
Turning to ACTGGTTATC, the switch fluorescence ratio came to 1.02 ± 0.046.
For GGGGCCCATG, the switch fluorescence ratio is 0.992 ± 0.021.
In the case of CTCACCCGGA, the switch fluorescence ratio stood at 1.18 ± 0.012.
As for TGGGTGGTTG, the figure is 1.02 ± 0.035; as for AGGACATTGG, 0.966 ± 0.023; as for TTGTTAGCCT, 1.05 ± 0.019.
Take ATGATCAGTG: the switch fluorescence ratio amounted to 0.98 ± 0.056.
As for GGGATGCCAA, the figure is 0.9794 ± 0.0018; as for TTCACTTGTG, 1 ± 0.018; as for GCTTGGTGCT, 1.05 ± 0.031.
As for GGATCTTAAG, the figure is 0.991 ± 0.035.
As for GTTGGTGGCG, the figure is 1.02 ± 0.044.
In the case of AATGTCGCGC, the switch fluorescence ratio is 0.961 ± 0.016.
Consider TGGTATTTTA, for which the switch fluorescence ratio worked out at 0.982 ± 0.028.
As for ACTATTGGTA, the figure is 1.03 ± 0.046; as for CAAGGTTTTT, 1.01 ± 0.021; as for ATCGGGATTA, 0.987 ± 0.021.
As for ACTCACGGGA, the figure is 1.46 ± 0.36; as for TGCGAGGGGA, 1.01 ± 0.032; as for GGAGTTTCGG, 1 ± 0.031.
As for CACTAGTGGG, the figure is 1 ± 0.0024; as for TGTAAAAACG, 1.01 ± 0.056; as for TTGGTAGTTT, 1.022 ± 0.0061.
Turning to TGTCTCAGAT, the switch fluorescence ratio is 0.97948 ± 0.00033.
As for AGTGATTGGG, the figure is 0.995 ± 0.031; as for GGGGTAGGTT, 1.02 ± 0.053; as for GTGTGTTAAC, 0.9738 ± 0.0095.
As for TTGTTTGTCC, the figure is 1.03 ± 0.058; as for TTGCACAAAA, 1.033 ± 0.0078; as for ATTGTTGGAT, 1.013 ± 0.0067.
As for GATATAGGCG, the figure is 1.05 ± 0.047; as for GGAGGAGAAT, 1 ± 0.014; as for GGCGGAAGTC, 1.01 ± 0.013.
For GGGGGTCACG, the switch fluorescence ratio was determined as 0.978 ± 0.028.
Turning to TAGTTAATAT, the switch fluorescence ratio turned out to be 1 ± 0.019.
As for TGGTTGATGA, the figure is 0.98 ± 0.064; as for TTGTAAGATT, 0.987 ± 0.0048.
As for TGGGTTACGG, the figure is 0.983 ± 0.036; as for GACGGATGTG, 0.986 ± 0.032; as for GCTCTTTTGG, 0.997 ± 0.019.
As for TGCCAATATG, the figure is 1.06 ± 0.014; as for AACGAGTCGT, 0.989 ± 0.029; as for TTGTATATGG, 1.05 ± 0.022.
TGAGCACAGG: the switch fluorescence ratio is 1.455 ± 0.0091.
As for CTCAGGTGTT, the figure is 1.73 ± 1; as for CCCAATTCCT, 1.14 ± 0.031; as for GAGGGAAGAG, 1.01 ± 0.021.
As for GATTGCATCG, the figure is 0.9937 ± 0.0013.
As for ACTCGTTGTC, the figure is 1.02 ± 0.035; as for CCGCGGCTGG, 1.154 ± 0.01.
For GGGTTTGGAT, the switch fluorescence ratio is 0.984 ± 0.025.
As for TAACAGAGGT, the figure is 1.01 ± 0.033; as for TTTTAATTCA, 1 ± 0.015; as for TTTTCAAGGT, 0.992 ± 0.019.
As for CGGAGGACGG, the switch fluorescence ratio was determined as 1.03 ± 0.032.
Turning to TGCTATATTA, the switch fluorescence ratio is 0.99152 ± 0.00065.
As for TTTGTATGGT, the figure is 0.976 ± 0.011.
As for CAGAAAGATA, the figure is 0.997 ± 0.018; as for TAATCGTC, 0.968 ± 0.023; as for GGGGACATAA, 0.997 ± 0.011.
As for AGTATATATT, the figure is 1.003 ± 0.0035.
As for CGGGCGGCGG, the switch fluorescence ratio was 0.9921 ± 0.0076.
As for CTAGTTAAAC, the figure is 1.01 ± 0.02; as for TCCAACTCCA, 1.11 ± 0.0039.
As for CACGAGAAGG, the figure is 1.03 ± 0.018; as for GGCCCGGGGA, 1.02 ± 0.042; as for ATGCTCTGCC, 0.992 ± 0.029.
As for TTGGATTCAT, the figure is 0.995 ± 0.016.
For the sequence ATGTGAGGGT, the switch fluorescence ratio turned out to be 1.017 ± 0.0039.
Consider GTTTCCTGGG, for which the switch fluorescence ratio was found to be 1.03 ± 0.082.
Consider GTATGCGTTG, for which the switch fluorescence ratio turned out to be 0.989 ± 0.056.
As for AGATCGGGTG, the figure is 1 ± 0.021; as for TTGGGCGCAG, 0.967 ± 0.019; as for TGGCGAGAGG, 1 ± 0.022.
As for TAGTTGTTGC, the figure is 0.977 ± 0.021; as for CATGTCAAGA, 1.01 ± 0.036.
CCCTAGTATG: the switch fluorescence ratio worked out at 0.9915 ± 0.0059.
As for TTGGTGCCGC, the figure is 0.975 ± 0.017; as for GGGTCATGTT, 1 ± 0.015.
As for TTTAAGGGTT, the figure is 1.02 ± 0.054; as for TAATGTGTAC, 1.024 ± 0.0044; as for TTTTCTTGTT, 0.9949 ± 0.0062.
As for GTATTAGGCG, the figure is 1.02 ± 0.02; as for GGGGTTACAG, 1.01 ± 0.013.
Consider TTGTTGTTAG, for which the switch fluorescence ratio is 1.0094 ± 0.00094.
As for CTAGGTGCAA, the figure is 1.19 ± 0.091.
As for GGGCTTGGAG, the figure is 1.012 ± 0.00086.
Regarding GGGGGGGAGG, the switch fluorescence ratio is 0.993 ± 0.029.
As for AGAGATGTAG, the figure is 0.966 ± 0.023.
As for AGTGGTGGTT, the figure is 0.977 ± 0.057; as for TTCGGTGGGG, 0.9805 ± 0.0094.
As for ATAATGGTTT, the figure is 0.987 ± 0.056; as for GCGGCATGGT, 0.985 ± 0.0093; as for AGAGTTGGCT, 0.992 ± 0.021.
With TCAGTATAGG, the switch fluorescence ratio worked out at 1.01 ± 0.021.
As for GCGGGTTGCT, the figure is 1.25 ± 0.39.
As for AATCGAGGGG, the figure is 0.991 ± 0.03; as for TATTGTAACC, 1.03 ± 0.016; as for CGTGTAGGGG, 1.03 ± 0.017.
With TTACTAAGGG, the switch fluorescence ratio was found to be 1.04 ± 0.04.
As for ACCAAATTAT, the figure is 1.03 ± 0.058.
As for CTTTGTCGCT, the figure is 1.01 ± 0.029; as for GCTCTGAGTA, 1.04 ± 0.073; as for ACGAGGGGGG, 1.02 ± 0.02.
As for TTGACCCAGG, the figure is 1.23 ± 0.11; as for TTTATTTAGC, 1.02 ± 0.034; as for TCGGTGATAC, 4.52 ± 1.3.
GATTCATGGG: the switch fluorescence ratio turned out to be 1.01 ± 0.0043.
As for ATAATGTCGA, the figure is 1.02 ± 0.026.
As for GAATTTATGG, the figure is 0.985 ± 0.023.
As for AGCCTATACT, the figure is 1.6 ± 0.16; as for TCGGGCGATG, 0.983 ± 0.036.
Consider ATTGTAGTCA, for which the switch fluorescence ratio was 0.973 ± 0.019.
For CACCATAGTG, the switch fluorescence ratio was found to be 1.03 ± 0.02.
As for TACGTTCAGG, the figure is 1.02 ± 0.011; as for GTTTGAGTTT, 0.996 ± 0.026; as for GCGTGGGGAA, 1.07 ± 0.036.
Consider CGTTGGGTTC, for which the switch fluorescence ratio amounted to 0.969 ± 0.013.
As for TAGCATTGTG, the figure is 1.02 ± 0.022.
Take ATTTTTTGTT: the switch fluorescence ratio is 0.976 ± 0.047.
